1 molecule from patent US20190137523A1 (Hoffmann-La Roche, published 2019) can be followed below.

For this test, the target named is T1, VEGF-A 121 (Peprotech), dimeric (human, UniProt P15692-9 27-147).
T1 construct: also called VEGF121
T1 sequence (looked up): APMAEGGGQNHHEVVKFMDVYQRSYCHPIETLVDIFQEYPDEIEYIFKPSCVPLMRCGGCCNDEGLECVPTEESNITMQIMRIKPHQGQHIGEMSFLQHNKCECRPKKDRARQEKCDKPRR
Briefly: SPR (Biacore T200), consecutive injections. VEGF-A 121 is displayed by captured rH-4.6.1-IgG (Avastin) and saturated again with rH-4.6.1-IgG. Setup as printed: rH-4.6.1-IgG*VEGF-A*rH4.6.1*Ab1*Ab2. Here is the method: The sample buffer was the system buffer supplemented with 1 mg/ml CMD (Carboxymethyldextran, Sigma #86524). The system operated at 25° C.
In general terms: Surface plasmon resonance follows binding to a sensor surface in real time, without labels.

B1: 13.7.40-Ru (antibody, V domains shown)
VH: QAQLQQPGAELVKPGASVNLSCKASGYTFTNYWIHWVSQRPGQGLEWIGEINPSDGRTYYNEKFKNKVILTVDEASTTAYLQLSSLTSEDSAVYYCTSRYYIYGVDYWGQGTTLTVSS
VL: SIVMTQTPKFLLVSPGDRVTITCKASQSVGHDVSWYRQKPGQSPKVLIYYASNRYTGVPDRFTGSGYGTDFTFTVRSVRTEDLAVYFCQQDYTSPLTFGTGTKLELKR
notes: Tested as a ruthenylated conjugate
For the molecule B1, the binding result is given as “binds”.
